Measured values reported in article PMC8875297.
Read-outs that look alike come from different tables or passages of the source.

| Substance | degradation_or_half_life (ubiquitination at K269) | degradation_or_half_life (phosphorylation at T286) | other (phosphorylation at T286) |
| --- | --- | --- | --- |
| cyclin D1: AMBRA1 depletion (siRNA, AMBRA1-/-, auxin-inducible degron) | decreases | – | – |
| cyclin D1: MLN4924 | decreases | – | – |
| cyclin D1: T286A | – | decreases | abolishes |
